Laboratory results published in paper PMC12844804, “Paving the Way for CCK2R-Targeted Peptide Receptor Radionuclide Therapy with [^177Lu]Lu-DOTA-MGS5 in Patients with Small Cell Lung Cancer” (Pharmaceutics, 2026).
Read-outs that look alike come from different tables or passages of the source.

Assays:
[1] = human, in vivo, iv; cited from earlier work
Method: Due to disease progression observed at the radiologic follow-up examination during fourth-line treatment with topotecan (Figure 4a–f) and following confirmation of intense tracer uptake on [^68Ga]Ga-DOTA-MGS5 PET/CT, the patient underwent a preliminary dosimetric evaluation with [^177Lu]Lu-DOTA-MGS5 to calculate the absorbed dose to organs at risk and the tumor. After the intravenous administration of 1.5 GBq [^177Lu]Lu-DOTA-MGS5 (corresponding to a peptide dose of less than 100 µg), scintigraphic images were acquired at 30 min, 4 h, 24 h, 72 h and 96 h p.i. (Supplementary Figure S3A). As prev ...

[2] = test system: A431-CCK2R cells; format: cell-based, human; conditions: ~250 kBq, 2 nM/well; for relative viability: viability 72 h after treatment, % of non-irradiated control, n = 3
Method: To investigate the cytotoxic effect of [^177Lu]Lu-DOTA-MGS5 on A431-CCK2R cells in comparison with EBRT, cells were counted using a TC20 automated cell counter (Bio-Rad Laboratories, Hercules, CA, USA), seeded at a density of 1 × 10^5 cells per well in 6-well plates and incubated at 37 °C with 5% CO2. After 24 h, cells were irradiated with varying doses (2, 4 and 8 Gy) using a linear accelerator (Elekta Precise, Elekta Oncology Systems, Crawley, England, UK) or by incubation with [^177Lu]Lu-DOTA-MGS5 (~250 kBq, 2 nM/well) for 4 and 24 h followed by replacement with fresh medium. Incubation periods of 4 h and 24 h were selected based on the previously established internalization kinetics and the stability data obtained for [^177Lu]Lu-DOTA-MGS5 [25]. At the time point of 72 h after treatment, cell viability was assessed using a Beckman Coulter Vi-CELL AS cell viability analyzer (Beckman Coulter, Fullerton, CA, USA). The supernatant from each well was collected in 15 mL Falcon tubes. Cells were then washed twice with 1 mL of serum-free medium, and the wash fractions were combined with the respective supernatants. Trypsin (300 µL) was added to each well, and plates were incubated until detachment. Following detachment, 1 mL of medium was added to each well, and cells were rinsed and transferred to their respective Falcon tubes. This washing step was repeated twice, reaching a total volume of 3 mL. Cells were pelleted by centrifugation in a benchtop centrifuge (Megafuge™ 8; Thermo Fisher Scientific, Waltham, MA, USA) at 2000 rpm for 8 min at 4 °C, and the supernatant was discarded. Pellets were resuspended in 1 mL of cold serum-free medium. Samples were loaded into the Vi-CELL AS analyzer according to the manufacturer’s instructions. The number of viable cells in each treatment group was normalized to the mean number of viable cells in the non-irradiated control group and expressed as a percentage of the control.

[3] = test system: patient with ED-SCLC; format: in vivo, human
Excerpt: A patient diagnosed with SCLC (initial stage: T4 N3 M1b with primary tumor of the left central lung and possible metastasis to the left adrenal gland) completed first-line systemic therapy with carboplatin/etoposide/atezolizumab (schedule: day 1–day 3, every three weeks) followed by maintenance therapy with atezolizumab and prophylactic cranial irradiation (fractions of 2 Gy each, reaching a total dose of 30 Gy; cognitive preservation with memantine). Subsequently, the entire primary tumor region, including the selectively involved lymph nodes on the left central side, was irradiated (fractions of 2 Gy, resulting in a total dose of 60 Gy). After completing EBRT approximately six months after diagnosis, the disease remained stable for the following four months. Ten months after diagnosis, a new metastasis to the right adrenal gland occurred, and re-induction therapy with carboplatin/etoposide/atezolizumab was administered (a total of four cycles; schedule: day 1–day 3, every three weeks). In the follow-up CT scan, progressive disease was identified again, and third-line therapy with cyclophosphamide/doxorubicin/vincristine was initiated (a total of four cycles; schedule: day 1–day 2, every three weeks). […] After 2 cycles, the disease again progressed. This time, there was progression of the primary tumor, liver metastases and new lymph node metastases. Thus, alternative image-guided treatment strategies were evaluated. […] Thus, the patient was considered eligible for PRRT with [^177Lu]Lu-DOTA-MGS5. PRRT was performed under the responsibility of the treating physician and after tumor board approval. According to the Austrian Medicines Act (Arzneimittelgesetz §8), named patient use (“Heilversuch”) was not subject to authorization by or notification to the authorities. Written informed consent was obtained from the patient. All procedures were in accordance with the principles of the 1964 Declaration of Helsinki and its subsequent amendments. The retrospective analysis of the data of the patient was exempted from consultation with the Ethics Committee by the Medical University of Innsbruck.
Adequate hydration was ensured through intravenous infusion of 1000 mL of 0.9% saline solution at a rate of 300 mL/h, starting 30 min before and continuing for 2 h after treatment administration. The patient received prophylactic antiemetic therapy with 4 mg ondansetron, as well as 4 mg dexamethasone and 40 mg pantoprazole, given 20 min before the treatment. Prophylactic antiemetic therapy was repeated 12 h after therapy.
[^177Lu]Lu-DOTA-MGS5 was administered intravenously via a dedicated peristaltic infusion pump system over a period of 15–20 min. The patient was discharged at the third day following therapy. The treatment was repeated approximately every four weeks.
Whole-body SPECT/CT after each therapy cycle was performed using a dual-head SPECT/CT system (NM/CT 870 DR; GE Healthcare, Chicago, IL, USA) approximately 24 h after injection of [^177Lu]Lu-DOTA-MGS5. The acquisition consisted of 60 projections over 360° with an angular step of 6° and a dwell time of 20 s per projection. A medium-energy general-purpose collimator was used. The primary energy window was set to 187.2–228.8 keV and the scatter window to 169.1–186.9 keV. SPECT images were reconstructed using the manufacturer’s proprietary algorithms (OSEM with resolution recovery), using 2 iterations and 10 subsets and no post-reconstruction filtering. The reconstructed matrix size was 128 × 128, with a pixel size of 4.42 mm. Photon scatter correction was performed using the dual energy window method, and attenuation correction was performed using a low-dose CT scan acquired at 120 kVp, 30 mAs effective, with CareDose4D activated. Whole-body planar imaging was performed in anterior and posterior views using the same system. The scan was conducted in supine position, feet-first orientation. The table traversed 1.14 m at a speed of 10 cm/min. […]

[4] = test system: A431-CCK2R cells; conditions: ~100 nM, 24 h treatment, 12 days colony formation, mean ± SD of four independent experiments in triplicate
Method: After this treatment, the medium was aspirated and the cells were gently washed twice with phosphate-buffered saline (PBS) and then incubated at 37 °C for 12 days to allow colony formation. At the end of the incubation period, the culture medium was removed, and the wells were gently rinsed twice with PBS.
Colonies were fixed by adding 1 mL of a 3:1 methanol–glacial acetic acid solution to each well and incubated for 20 min at room temperature in a chemical hood. The solution was removed and the fixed cells gently rinsed twice with 1 mL of PBS.
Staining was performed using 1 mL of Giemsa stain (modified solution; Sigma-Aldrich, St. Louis, MO, USA, CAS No. 32884) diluted 3.5:10 in Milli-Q water. Plates were incubated with the staining solution for 2 h at room temperature. After staining, wells were rinsed twice with Milli-Q water, and plates were inverted on absorbent paper to air-dry.
Colonies were counted manually, with each visible purple-stained cluster considered as one colony. […] Each data point represents the mean ± standard deviation (SD) of four independent experiments, each performed in triplicate.

[5] = human, in vivo
Method: For dosimetry, both planar and SPECT/CT imaging were performed at nominal time points of 30 min and 4, 24, 72 and 96 h post-injection (p.i.). The acquisition protocol for the first three time points followed the procedure described above. For the 72 and 96 h scans, the dwell time per projection for SPECT acquisition was increased to 24 s, and the planar scan speed was reduced to 8 cm/min to compensate for the reduced count statistics at later time points. The gamma camera sensitivity was calibrated according to the GE Healthcare-recommended protocol (DICOM Conformance Statement: NM General Purpose 600/800 Series, Rev. 15, 2018). A Petri dish containing a known activity of lutetium-177 was used as the calibration source, yielding a calibration factor of 5.2 cps/MBq. To correct for partial volume effects (PVEs), recovery coefficients (RCs) were determined using an IEC-NEMA phantom with fillable spheres of varying diameters, and a Jaszczak phantom containing a 60 mm sphere (Data Spectrum Corporation, Hillsborough, NC, USA). For each sphere, RCs were calculated, and a logarithmic regression model was fitted to generate a recovery curve. Two selected well-delineable lesions were segmented on 24 h p.i. SPECT images using a 41% isocontour threshold in Affinity 3.0 (Hermes Medical Solutions, Stockholm, Sweden). Subsequently, SUVmax values normalized to body weight were computed and corrected for PVEs using the corresponding RCs. […] (Supplementary Figure S3A). […] Additionally, the mean absorbed dose to the tumor was 12.5 ± 10.2 Gy/GBq (range: 1.2-28 Gy/GBq) across five well-delineated lesions. The time-activity curves for kidneys, stomach wall and two selected lesions were fitted and extrapolated using non-linear regression. […] A tri-exponential function was used for the kidneys, while a bi-exponential model (with k3 = 0) was applied for the stomach wall and the two lesions. […]

[6] = test system: patients with advanced MTC; conditions: human, in vivo; cited from earlier work
Method: So far, ^177Lu-labeled peptides targeting CCK2R have been used for PRRT in patients with advanced MTC. […] In a dose escalation study, six patients with advanced MTC were treated with up to three to four cycles of [^177Lu]Lu-PP-F11N (3 × 6 GBq or 4 × 8 GBq) ...

For `CCCC[C@@H](C(=O)N[C@@H](CC(=O)O)C(=O)N[C@@H](Cc1cccc2ccccc12)C(N)=O)N(C)C(=O)[C@H](Cc1c[nH]c2ccccc12)NC(=O)CNC(=O)[C@H](Cc1ccc(O)cc1)NC(=O)[C@H](C)NC(=O)[C@@H](CCC(=O)O)NC(=O)CN1CCN(CC(=O)O)CCN(CC(=O)O)CCN(CC(=O)O)CC1` [[^177Lu]Lu-DOTA-MGS5, metal not drawn], the “absorbed dose to the bone marrow” value [1] is listed as 0.022 Gy/GBq, the “absorbed dose to the kidneys” value [1] is listed as 0.28 Gy/GBq and the “absorbed dose to the stomach” value [1] is listed as 0.42 Gy/GBq. The “absorbed dose to the tumor, range” value [1] was 1.2–28 Gy/GBq, the “mean absorbed dose to the tumor” value [1] was 12.5 ± 10.2 Gy/GBq and the “EBRT dose with comparable response” value ([2]; 4 h and 24 h incubation, compared with EBRT 2, 4 and 8 Gy) was 2-4 Gy. For the same compound, the relative viability ([2]; 4 h incubation) was 58.5 ± 3.3%, the relative viability ([2]; 24 h incubation) was 55.5 ± 8.3% and the “change of SUVmax in two well-delineated lesions” value ([3]; SPECT 24 h p.i., dosimetry and first three cycles, PVE corrected) was “only a minor decrease”. For the same compound, the “uptake in new disseminated liver metastases” value ([3]; SPECT/CT after the fourth cycle) was “negative”, the clinical symptoms ([3]; after the second administration) was “improvement” and the “lesion uptake on serial SPECT/CT after each treatment cycle” value ([3]; approximately 24 h p.i.) was “overall stable uptake”. The “follow-up contrast-enhanced CT finding” value ([3]; at the fourth cycle of PRRT) was “continued disease progression”, the GGT ([3]; human, in vivo) was 74 U/L and the GOT ([3]; human, in vivo) was 44 U/L. For the same compound, the GPT ([3]; human, in vivo) was 14 U/L, the “Karnofsky Index” value ([3]; human, in vivo) was 100% and the “absorbed dose delivered to the tumor lesions during PRRT, range” value ([3]; human, in vivo) was 21-482 Gy. The “absorbed dose of healthy tissue, bone marrow” value ([3]; human, in vivo) was 0.4 Gy, the “absorbed dose of healthy tissue, kidneys” value ([3]; human, in vivo) was 5 Gy and the absorbed dose of healthy tissue, stomach ([3]; human, in vivo) was 7 Gy. For the same compound, the “adverse effect following the first administration” value ([3]; human, in vivo) was “mild nausea”, the creatinine ([3]; human, in vivo) was 0.64 mg/dL and the eGFR ([3]; human, in vivo) was greater than 60 mL/min/1.73 m^2. The “hematological, renal or hepatic toxicities in laboratory tests” value ([3]; human, in vivo) was “no hematological, renal or hepatic toxicities”, the “mean absorbed dose delivered to the tumor lesions during PRRT” value ([3]; human, in vivo) was 215 Gy and the weight loss ([3]; human, in vivo) was “approximately 2 kg”. For the same compound, the NSE levels ([3]; tumor marker during four administrations) was “slight reduction after the first three administrations but increased by the fourth administration”, the clonogenic survival ([4]; 2 MBq/well) was 54.9 ± 10.9% and the clonogenic survival ([4]; 250 kBq/well) was 82.7 ± 6.5%. The “tracer clearance kinetics, CCK2R-positive stomach wall” value [5] was “slower and more prolonged washout”, the “tracer clearance kinetics, kidneys” value [5] was “rapid initial decline in activity” and the “tracer clearance kinetics, thoracic wall lesion and gastrointestinal tract lesion” value [5] was “gradual mono-exponential decrease in activity”.

For “DOTA-(DGlu)6-Ala-Tyr-Gly-Trp-Nle-Asp-Phe-NH2 [[^177Lu]Lu-PP-F11N, ^177Lu-labeled CCK2R-targeting agonist]”, the dose-limiting toxicity [6] is given as “without signs of dose-limiting toxicity” and the “median absorbed tumor dose” value [6] is given as 0.88 Gy/GBq.
